# Test results taken from the RNAGym collection of RNA variant scans (doi:10.7554/elife.90254).
# B1: OR4K15 (parent)
# chain: GUUAACGGUCAUAGGCCAUGGAAACUAGGAGCACCAUUUCGCUGCCAGUGAAGAAAUGAACAAAGAAAAUCUGGGCCAGGCAGGCAUCAAAAGAAAUAGUCUUGCGCUCAACCAGAAAGUCUGUAAUCAUUUUAAGGGUA
# Variants of: B1
# Experiment: self-cleavage, relative activity (ratio to wild type); higher = more cleavage; in vitro, sequencing; the parent is a self-cleaving ribozyme
row,Variant,self-cleavage
1,A78U A98U,0.71
2,A78U A95G,0.84
3,A78U A95U,0.2
4,A82U U122A,0.16
5,A82U U122C,0.17
6,C85U A90C,1.2
7,A78U A129C,0.14
8,A78U A129G,0.18
9,C81G A82G,0.3
10,A86G U120A,1.8
11,C85U A117G,1.16
12,C81U U108A,0.02
13,C81U U108C,0.02
14,A78G A95G,0.26
15,A82U A110G,0.04
16,A78G U120C,0.19
17,A82U U130C,0.14
18,A78C A98U,0.58
19,A78C C128U,0.29
20,G79A U120A,0.13
21,G79A U120G,0.11
22,A82G A114G,0.08
23,A82G A114U,0.03
24,A82U A114U,0.01

row,Variant,self-cleavage
1,A82U A114G,0.03
2,G84C A94G,0.32
3,A78G U103G,0
4,A78G U103A,0.08
5,G83C,0.35
6,G83A,1.55
7,G83U,0.45
8,A86C A89G,1.17
9,G79C U132C,0.06
10,C85U A125U,1.35
11,G80A A95U,0.17
12,G79A U87A,0.11
13,G79A U87C,0.1
14,A78G C88A,0.17
15,A78G A111G,0.03
16,A86G A110U,1.06
17,G84A A94G,0.98
18,G80A A91G,0.08
19,G83A A140U,2.25
20,G79A A94G,0.15
21,A78U A114U,0.03
22,A78U A114G,0.11
23,A82U U124C,0.18
24,A82G A86G,0.14

row,Variant,self-cleavage
1,C85G U130C,0.34
2,A86G A92G,1.07
3,A78G A82G,0.13
4,A82G A125G,0.23
5,G83A U103C,0.41
6,A86G U87A,1.4
7,C85U U103C,0.34
8,C77U A89U,2.73
9,G79A A117G,0.09
10,C81A,0.25
11,C81U,0.35
12,C81G,0.2
13,A82U A96U,0.25
14,A82U A96G,0.24
15,A82G A94U,0.64
16,A82G A94G,0.32
17,C77U G80A,0.37
18,A86G A89U,1.86
19,A86C G106U,0.01
20,C81U U127C,0.22
21,A86G A117G,1.45
22,A86G A117U,1.45
23,A78U G119A,0.39
24,A82G C85U,0.32

row,Variant,self-cleavage
1,A78G U102A,0.11
2,A78U C105U,0.03
3,C77U U103C,2.12
4,A86G U130A,1.55
5,A78U U124C,0.26
6,G84A U122C,2.09
7,A82U U87A,0.02
8,A86G U100C,2.12
9,A86G U100A,0.41
10,G79A A86U,0.09
11,G79A A86G,0.22
12,A78G A126G,0.15
13,A78U U127C,0.07
14,G80U U139A,0.09
15,C85U U87C,1.47
16,C85A G106U,0.03
17,A78U U108C,0.01
18,A82U U102C,0.33
19,G83U A116G,0.2
20,A82U A89U,0.32
21,A82U A89G,0.1
22,A78C A125G,0.04
23,A78C A94G,0.39
24,C85A A135G,1.54

row,Variant,self-cleavage
1,A78G A118U,0.21
2,C85A A98U,1.17
3,A78U A86G,0.11
4,A82G A91G,0.12
5,A86G U127A,1.76
6,A86G U127C,1.22
7,G80A C81A,0.11
8,A78U U133C,0.37
9,C77U A125G,1.37
10,G79A A91C,0.09
11,G80U,0.1
12,G80A,0.24
13,G80C,0.07
14,G83A U122A,1.13
15,A78C G79A,0.16
16,G84U U130C,0.28
17,A82C A116G,0.09
18,A82G A140U,0.53
19,A86G A91U,0.73
20,A86G A91G,0.16
21,A86G A135G,0.99
22,A86G U102A,1.36
23,A78C U102A,0.02
24,C85A A134G,1.83

row,Variant,self-cleavage
1,A78G G123U,0.25
2,A78G C105U,0.03
3,A78U A125G,0.03
4,A78U U132C,0.48
5,G79A A98U,0.13
6,G79A A98G,0.03
7,G79U A94G,0.43
8,G83A A89G,1.56
9,C85U U108C,0.04
10,C85U U108G,0.01
11,A78C,0.18
12,A78U,0.36
13,A78G,0.22
14,A78U A89G,0.27
15,A86C U127A,1.62
16,A78C U127C,0.18
17,G80A A129G,0.09
18,A78G C109A,0.05
19,A82G A95G,1.23
20,A86G A125G,0.45
21,A86G A125U,0.14
22,G80A A92G,0.16
23,G80A A114G,0.05
24,A82G U97C,0.5

row,Variant,self-cleavage
1,A82G U97A,0.92
2,A86G U124C,0.3
3,A82U A140U,0.24
4,G80U G123A,0.14
5,A78C A111U,0.01
6,C77U A129G,1.77
7,A78U A116G,0.14
8,A86G U108A,0.01
9,A78U A96G,0.38
10,C81G U127C,0.04
11,C76U U108C,0
12,A82G U127C,0.22
13,A78U G115U,0.03
14,A78G A117C,0.22
15,A78G A117U,0.1
16,A78U A140G,0.34
17,G84A A111G,0.01
18,A82U U103C,0.03
19,A82G U124C,0.27
20,G84C U127C,0.22
21,G84A A126G,0.87
22,C81A A135G,0.22
23,A82G C112U,0
